Here are results for 1 substance from article PMC5550006.

One may read the stoichiometry N as a count of units in the complex or per binding partner.

This assay addresses recombinant IPSE/alpha-1 expressed in tobacco plants (N-terminally tagged H6F-IPSE) (Schistosoma mansoni). Put plainly: SDS-PAGE under reducing and non-reducing conditions; purified IPSE on a 12% Bis-Tris gel, with and without DTT, Coomassie brilliant blue staining.

For the substance “recombinant IPSE/alpha-1 expressed in tobacco plants (N-terminally tagged H6F-IPSE) (natural protein)”, the stoichiometry N is 2.
